Tests used:
[1] = biological target: TDP-43 full-length (oligomers) (Homo sapiens, UniProt Q13148 Q13148:1-414); experiment: intrinsic fluorescence titration (ex 280, em 350 nm), 1.5 uM protein, 30 mM Tris-HCl pH 8; residual binding may come from minor monomer population; details: chain copies: oligomer (stated); 1:1 stoichiometry of TDP-43 and ssDNA from fit
[2] = biological target: TDP-43s short-form TDP-43 (RRM1-RRM2) (Mus musculus, UniProt Q921F2 Q921F2:101-265); experiment: intrinsic fluorescence titration (ex 280, em 350 nm), 1.5 uM protein, 30 mM Tris-HCl pH 8; details: tags: prepared per Kuo et al 2009

Chain of TDP-43 full-length (oligomers) (Q13148 whole entry, one chain of several): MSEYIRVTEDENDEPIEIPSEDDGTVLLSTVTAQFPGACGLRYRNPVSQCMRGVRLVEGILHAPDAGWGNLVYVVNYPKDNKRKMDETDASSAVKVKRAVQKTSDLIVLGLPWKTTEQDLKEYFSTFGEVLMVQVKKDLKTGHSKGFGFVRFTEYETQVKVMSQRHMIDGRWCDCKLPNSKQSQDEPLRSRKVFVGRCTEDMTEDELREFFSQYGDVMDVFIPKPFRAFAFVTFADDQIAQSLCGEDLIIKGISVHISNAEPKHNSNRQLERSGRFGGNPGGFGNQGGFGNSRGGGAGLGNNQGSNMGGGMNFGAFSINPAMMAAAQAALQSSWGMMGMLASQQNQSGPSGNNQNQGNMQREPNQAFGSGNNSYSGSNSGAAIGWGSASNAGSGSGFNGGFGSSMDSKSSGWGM

B1: TAR DNA A-site (ssDNA)
DNA: CTTTTTGCCTGT
Kd [1]: 7.05 µM
Kd [2]: 0.2 µM

B2: TAR DNA B-site (ssDNA)
DNA: TGGGTCTCTCTG
Kd [1]: 6.27 µM
Kd [2]: 0.38 µM

Source: patent US20170298124A1, “ANTIBODIES AGAINST PATHOLOGICAL FORMS OF TDP-43 AND USES THEREOF” (Academia Sinica, published 2017)
